From patent US20120014870A1 (FORERUNNER PHARMA RESEARCH, published 2012)

T1: HA-tagged full-length human LGR7 expressed on cells (HA-LGR7/DG44, HA-LGR7/BaF3) (human, UniProt Q9HBX9 1-757)
T1 construct: Full-length human LGR7 with an N-terminal HA tag, forcedly expressed in DG44 (CHO-derived) or Ba/F3 cells; also called HA-LGR7/DG#24; HA-LGR7/DG44#24
T1 sequence: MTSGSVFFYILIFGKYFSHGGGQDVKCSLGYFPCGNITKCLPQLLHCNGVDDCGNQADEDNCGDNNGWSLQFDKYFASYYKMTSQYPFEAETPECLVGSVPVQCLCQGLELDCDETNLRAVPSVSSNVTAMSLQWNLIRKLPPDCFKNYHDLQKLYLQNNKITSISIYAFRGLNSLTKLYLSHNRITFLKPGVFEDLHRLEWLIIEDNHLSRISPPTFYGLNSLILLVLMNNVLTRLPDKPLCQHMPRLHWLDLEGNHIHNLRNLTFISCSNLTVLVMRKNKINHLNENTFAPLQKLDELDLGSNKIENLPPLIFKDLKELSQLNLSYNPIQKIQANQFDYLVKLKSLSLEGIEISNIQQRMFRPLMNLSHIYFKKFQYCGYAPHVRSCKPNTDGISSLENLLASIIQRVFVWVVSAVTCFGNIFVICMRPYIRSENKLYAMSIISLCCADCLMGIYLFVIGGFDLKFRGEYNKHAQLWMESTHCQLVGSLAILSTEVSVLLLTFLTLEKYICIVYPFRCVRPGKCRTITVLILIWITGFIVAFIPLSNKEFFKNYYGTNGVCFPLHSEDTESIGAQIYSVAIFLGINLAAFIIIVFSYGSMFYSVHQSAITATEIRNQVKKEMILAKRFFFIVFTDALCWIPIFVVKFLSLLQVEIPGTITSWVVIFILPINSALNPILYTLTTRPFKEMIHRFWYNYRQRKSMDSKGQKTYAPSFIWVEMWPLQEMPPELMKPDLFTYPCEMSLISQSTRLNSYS

B1: 22SD7 (antibody, IgG2a, V domains shown)
VH: QVQLQQPGAELVRPGASVKLSCKASGYTFTSYWMNWVKQRPEQGLEWIGRIDPYDSETHYNQKFKDKAILTVDKSSSTAYMQLSSLTSEDSAVYYCARWEVVAPWDYWGQGTTLTVSS
VL: DIVMTQAAPSVPVTPGESVSISCRSSKSLLHSNGNTYLYWFLQRPGQSPQLLIYRMSNLASGVPDRFSGSGSGTAFTLRISRVEAEDVGVYYCMQHLEYPWTFGGGTKLEIK
notes: Mouse hybridoma antibody, isotype IgG2a; also called anti-LGR7 monoclonal antibody 22SD7
B2: 22DA23 (antibody, IgG1, V domains shown)
VH: EIQLQQSRPELVRPGASVKVSCQASGYAFTNYNMYWVKQSHGKSLEWIGYIDPYNDDTTYNQKFKGKATLTVDKSSSTAYMHLNSLTSEDSAVFYCARFRLGYYAMDYWGQGASVTVSS
VL: DIVLTQSPASLAVSLGQRATISCKASQSVDYDLDSYMNWYQQKPGQPPKLLIYVASNLESGIPARFSGSGSGTDFTLNIHPVEEEDAATYYCQQSNEDPFTFGSGTKLEIK
notes: Mouse hybridoma antibody, isotype IgG1; also called anti-human LGR7 monoclonal antibody 22DA23
B3: 22DA17 (antibody, IgG2b, V domains shown)
VH: QVQLQQSGAELVRPGVSVKLSCKASGYSLTTYWMNWVKQRPGQGLEWIGMIHPSDSETVINQKFKDKATLTVDKSSSTAYMQLSSPTSEDSAVYYCARWDYDYYFDYWGQGTTLTVSS
VL: DVLMTQTPLSLPVSLGDQASISCRSSQSIVHSNGNTYLEWYLQKPGQSPNLLIYKVSNRFSGVPDRFSGSGSGTDFTLKISRVEAEDLGVYYCFQGSHVPFTFGSGTKLEIK
notes: Mouse hybridoma antibody, isotype IgG2b; also called Bio-22DA17 (biotinylated form)

These binders were tested against T1, HA-tagged full-length human LGR7 … (assay: flow cytometry, hybridoma supernatant on LGR7-expressing DG44 cells against parental DG44 cells).
Procedure: The binding of the obtained hybridomas to human LGR7/DG44 cells was evaluated by flow cytometry. The cell line expressing human LGR7 suspended in FACS buffer (2% FBS/PBS/0.05% NaN₃) was diluted to 1×10⁶ cells/mL using FACS buffer, and this was aliquoted into a Falcon 353910 round-bottom 96-well plate at 50 μL/well. The hybridoma culture supernatant diluted to a suitable concentration was added to the wells containing the cells, and this was reacted for 60 minutes on ice. Next, the cells were rinsed once with FACS buffer. As a secondary antibody, a goat F(ab′)₂ fragment anti-mouse IgG Fcγ-FITC (Beckman Coulter) was added to the wells containing the cells, and this was reacted for 30 minutes on ice. After the reaction, the supernatant was removed by centrifugation, and the cells were suspended in 100 μL of FACS buffer, and subjected to flow cytometry. The FACS Calibur (Becton Dickinson) was used for the flow cytometry. A gate for the viable cell population was established using a forward scatter/side scatter dot blot, and an FL1 histogram was produced for the cells included in the population, and their binding activity was evaluated.
The hybridoma supernatants were reacted with DG44 cells induced to express LGR7 and the parental DG44 cells, respectively. Thus, hybridomas that specifically react with LGR7-expressing cells were obtained. The hybridomas from the wells were made into single clones by the limiting dilution method. The isotype of each antibody was analyzed using an IsoStrip® mouse monoclonal antibody isotyping kit (Roche Diagnostics). As a result, the isotype of 22DA6, 22DA7, 22DA11, 22DA12, 22DA23, and 22DA24 is IgG1; and the isotype of 22DA4, 22DA10, 22SD7, 22SD25, 22SD31, and 22SD48 is IgG2a; and the isotype of 22DA17 and 22DA20 is IgG2b. Expansion culture of a single-clone hybridoma was performed, and then the antibody was purified from the culture supernatant using a protein G column according to the manual. The purified antibody was subjected to protein quantification by DC Protein Assay, etc.

| binding result | Binder |
| --- | --- |
| binds | B1 |
| binds | B2 |
| binds | B3 |
